Data on four substances can be found in PMC5501646.

The subject of data set [1] is HfqPae (wild type) (Pseudomonas aeruginosa PAO1). Put plainly: MST. As to conditions: 1 mM Mg2+, 25 C, MST: 10 mM Tris pH 8.0, 40 mM NaCl, 10 mM KCl, 1 mM MgCl2, 0.05% Tween, EMSA: 10 mM Tris-HCl pH 8.0, 10 mM MgCl2, 60 mM NaCl, 10 mM NaH2PO4, 10 mM DTT …. Background: In EMSA bound probe runs differently from free probe, usually more slowly.
Data set [2] concerns the target HfqPae (wild type) (Pseudomonas aeruginosa PAO1) (UniProt Q9HUM0). Put plainly: EMSA. To be noted: MST: 10 mM Tris pH 8.0, 40 mM NaCl, 10 mM KCl, 1 mM MgCl2, 0.05% Tween, 25 C; EMSA: 10 mM Tris-HCl pH 8.0, 10 mM MgCl2, 60 mM NaCl, 10 mM NaH2PO4, 10 mM DTT ….
Data set [3] has as its target HfqPaeY25DFlag Y25D (Pseudomonas aeruginosa PAO1) (UniProt Q9HUM0). Put plainly: EMSA. To be noted: MST: 10 mM Tris pH 8.0, 40 mM NaCl, 10 mM KCl, 1 mM MgCl2, 0.05% Tween, 25 C; EMSA: 10 mM Tris-HCl pH 8.0, 10 mM MgCl2, 60 mM NaCl, 10 mM NaH2PO4, 10 mM DTT ….
Data set [4] deals with HfqPae (wild type) (Pseudomonas aeruginosa PAO1) (UniProt Q9HUM0). Put plainly: MST. To be noted: MST: 10 mM Tris pH 8.0, 40 mM NaCl, 10 mM KCl, 1 mM MgCl2, 0.05% Tween, 25 C; EMSA: 10 mM Tris-HCl pH 8.0, 10 mM MgCl2, 60 mM NaCl, 10 mM NaH2PO4, 10 mM DTT ….

pKd: −log10 of the molar value.

For CrcZ RNA, the negative-log Kd (pKd) in data set [1] (30 nM labelled Hfq) was 8.13. Turning to “GGACUGGUCGCGAGGCCAGCAGGUAAGCUGAGAGACCAAGCAGUCGGACUCUUCAGAUUAUCUCCUCAUCAGGCUAAUCACGGUUUCGACCCGGCACUUUGCCGGGUCUUUUUUUG [PrrF2 sRNA]”, in data set [2], the binding entry is given as “binds”. “GGGAGCCGGCCUUGCGCCGGCAUAUGCCUUGCAUUUUGCUGAAAACAGAGCGCCAGCAGAGCGCACCCCCAGCCUUGCCGUGUCGAGUGCCGAACCAUGAUGAGGACCCAUCCCGUCGCCGAUCGUGGCGAUCUCCAUGCCGACCACCUGGACCUGGCCGCCG [antR(-95-+67) mRNA fragment]”: the binding result in data set [3] was “no binding”. In addition, the pKd in data set [4] was 7.43.

antR(-95-+67) mRNA fragment showed a pKd in data set [1] (20 nM labelled Hfq) of 7.43.

As usually defined, the pKd is −log10 of the Kd, conventionally taken in molar units.
